Experimental findings from patent US7534937B2, “Genes conferring herbicide resistance” (Athenix Corporation, priority 2004, dated 2009) are described below.

The subject of the test is E. coli strain DH5α. The experiment in a line: Growth (OD600) in M63 broth containing glyphosate of cells carrying pAX299 (grg8). In kind it is cell-based. To be noted: for OD600: 37° C., about 46 hours, means ± standard deviations, triplicate cultures. As to the method:
The grg8 open reading frame (ORF) was amplified by PCR, cloned into the plasmid vector pCR-Blunt-II from Invitrogen, and transformed into E. coli strain DH5α. Plasmid DNA was prepared and the presence and orientation of the inserts were determined by restriction digest. One clone contained the ORF in the forward orientation with respect to the lac promoter in the vector. This plasmid was named pAX299. The insert was sequenced and the plasmid was tested for the ability to confer resistance to glyphosate.
pAX299 was tested for the ability to grow on M63 medium in the presence of glyphosate using cells containing empty vector as a control. The plasmid pAX296 in host strain DH5α was used as a negative control. This plasmid contains a fragment of tobacco genomic DNA cloned into the vector pCR-Blunt-II. Starter cultures of the two strains were grown in M63 broth with 50 μg/ml kanamycin to maintain the plasmid. The starter cultures were diluted to approximately equal cell densities, as determined by measuring OD600, then diluted 1 to 200 into 3 ml of M63 broth containing 0 to 200 mM glyphosate. Triplicate 3 ml cultures of each strain in each concentration were grown. Cultures were grown at 37° C. with constant shaking. After about 46 hours, 0.3 ml aliquots were withdrawn and the OD600 was measured. Values represent means + standard deviations.

B1: grg8: Glyphosate resistance gene from strain ATX4145 encoding a novel non-Class II EPSP synthase (SEQ ID NO:3); ORF carried in plasmid pAX299 (protein, listed as Brevundomonas vesicularis)
chain: MMMGRAKLTIIPPGKPLTGRAMPPGSKSITNRALLLAGLAKGTSRLTGALKSDDTRYMAEALRAMGVTIDEPDDTTFIVKGSGKLQPPAAPLFLGNAGTATRFLTAAAALVDGKVIVDGDAHMRKRPIGPLVDALRSLGIDASAETGCPPVTINGTGRFEASRVQIDGGLSSQYVSALLMMAAGGDRAVDVELLGEHIGALGYIDLTVAAMRAFGAKVERVSPVAWRVEPTGYHAADFVIEPDASAATYLWAAEVLSGGKIDLGTPAEQFSQPDAKAYDLISKFPHLPAVIDGSQMQDAIPTLAVLAAFNEMPVRFVGIENLRVKECDRIRALSSGLSRIVPNLGTEEGDDLIIASDPSLAGKILTAEIDSFADHRIAMSFALAGLKIGGITILDPDCVAKTFPSYWNVLSSLGVAYED
Turning to B1, the OD600 is 1.18 ± 0.029 (0 mM glyphosate); 1.15 ± 0.018 (10 mM glyphosate); 1.10 ± 0.043 (20 mM glyphosate); 1.20 ± 0.037 (50 mM glyphosate); 1.31 ± 0.024 (100 mM glyphosate); 0.05 ± 0.004 (200 mM glyphosate). For the setting “0 to 200 mM glyphosate”, the “Glyphosate resistance (conclusion from Table 1)” value is “confers resistance to high levels of glyphosate”.
